Assay results as given in patent US20230295310A1 (ABCELLERA BIOLOGICS, published 2023).

Target: T1, human CD3e/d (human, UniProt P07766 23-126; P04234 22-105)
T1 construct: Bought soluble protein; also called hCD3e/d; human CD3/ed (Sino CT038-H2508H)
Assay: SPR (Carterra LSA), mAb on chip
Protocol: High-throughput surface plasmon resonance (SPR) coupled kinetic experiments were performed on a Carterra LSA® instrument equipped with an HC-30M chip type (Carterra, USA). The instrument uses two microfluidic modules, a single-flow cell (SFC) and a 96 printhead, to deliver samples to the chip surface via back-and-forth cycling of a fixed sample volume. An up to 384-ligand array is generated by docking the MFC onto each of the four nested print block locations in a serial manner.
The purified mAbs were immobilized on a Carterra LSA® HC-30M chip by direct coupling. The chip surface was first activated by flowing a freshly prepared 1:1:1 activation mix of 100 mM MES pH 5.5, 100 mM S-NHS, 400 mM EDC for 7 min. mAbs diluted to 10 μg/mL in 10 mM NaOAc pH 4.25+0.01% TWEEN®20 were then injected and printed onto the chip surface simultaneously using the MFC printhead for 10 min. Finally, the chip surface was quenched by flowing 1 M ethanolamine for 7 min (to block the excess reactive esters), followed by 2 wash steps of 15 s each in 25 mM MES pH 5.5. In addition to expressed and purified mAbs, relevant benchmarks and negative control mAbs were also printed on the chip surface.
The data were analyzed using the Carterra Kinetics analysis software. Briefly, the data were referenced with the interstitial reference spots and double-referenced to a buffer cycle, and then fit globally to a 1:1 Langmuir binding model to determine their apparent association (ka) and dissociation (kd) kinetic rate constants and binding affinity constants (KD).

T1 sequence (P07766 23-126, chain 1 of 2): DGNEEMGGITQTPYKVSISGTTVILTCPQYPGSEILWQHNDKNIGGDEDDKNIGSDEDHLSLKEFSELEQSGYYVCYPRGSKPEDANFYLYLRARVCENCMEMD
T1 sequence (P04234 22-105, chain 2 of 2): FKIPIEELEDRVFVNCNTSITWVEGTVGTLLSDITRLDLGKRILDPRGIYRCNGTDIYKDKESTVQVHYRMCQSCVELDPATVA

Kd	Binder
7.72 nM	mAb 179 (antibody, V domains shown, VH and VL only) VH: EVQLVESGGGLVQPGRSLRLSCAASGFTFDDYTMHWVRQTPGKGLEWVSDISWNSGSIGYADSVKGRFTISRDNAKNTLYLQMNSLRAEDTALYYCVKDSSGYGHYLYYYMDVWGKGTTVTVSS VL: DIQMTQSPSSLSASVGDRVTITCRASQSIRNYLNWYQQSPGRAPKLLIFSASSLQSGVPSRFSGSGSGTDFTLTISSLQPEDFVTYYCQQRYSTPITFGQGTRLEIK
0.992 nM	mAb 178 (antibody, V domains shown, VH and VL only) VH: EVQLVESGGGLVQPGRSLRLSCAASGFTFDDYTMHWVRQAPGKGLEWVSDISWNSGTIGYADSVKGRFTISRDNAKNSLYLQMNSLRAEDTALYYCVKDSSGYGHYYKYYMDVWGKGTTVTVSS VL: DIQMTQSPSSLSASVGDRVTITCRASQSISNYLNWYQQKAGKVPKVLIYGSSSLQSGVPSRFSGSGSGTDFTLTISSLQPEDFASYYCQQTYSSPLTFGGGTKVDFK
7.11 nM	mAb 173 (antibody, V domains shown, VH and VL only) VH: EVQLVESGGGLVQPGRSLRLSCAASGFTFDDYTMHWVRQVPGKGLEWVSDISWNSGSVGYADSVKGRFTISRDNAKNSLYLQMNSLRAEDTALYYCVKDSSGYGHYFHYYMDVWGKGTTVTVSS VL: DIQMTQSPSSLSASVGDRVTITCRASQSISNYLNWYQVKPGKAPKVLIYAASSLQSGVPSRFSGSGSGTDFTLTISSLQPEDFVSYYCHQSYNTPITFGQGTRLEIK
450 nM	mAb 284 (antibody, V domains shown, VH and VL only) VH: EVQLLESGGGLVQPGGSLRLSCAASGFTFSSYAMSWVRQAPGKGLEWVSAISGSSGRTYYTDSVKGRFTISRDNSKNTLSLQMNSLRAEDTAVYYCAKKYSYYYYYMDVWGKGTTVTVSS VL: SYELTQPLSVSVALGQTAKITCGGNNIGSKNVHWYQQKPGQAPVLVIYRDSNRPSGIPERFSGSNSGNTATLTISRAQAGDEADYYCQVWDSSTAVFGGGTQLTAL
150 nM	mAb 285 (antibody, V domains shown, VH and VL only) VH: EVQLLESGGGLGQPGGSLRLSCAASGFTFSNYAMSWVRQAPGKGLEWVSVISGSGGDKNYADSVKGRFTISRDNSKNTLYLQMNSLRAEDTAVYYCAKKYSYYYYYMDVWGKGTTVTVSS VL: SYELTQPLSVSVALGQTARITCGGNNIGSKDVHWYQQKPGQAPVLVIYRDSNRPSGIPERFSGSNSGNTATLTISSAQAGDEADYYCQVWDSRTAVFGGGTQLTAL
110 nM	mAb 301 (antibody, V domains shown, VH and VL only) VH: EVQLLESGGGLVQPGGSRRLSCAASGFTFSSYAMSWVRQAPGKGLEWVSVISGRGDNTNYADSVKGRFTISRENSKNMLYLQMNSLRAEDTAVYYCAKKYSYYYYYMDVWGKGTTVTVSS VL: SYELTQPLSVSVALGQTARITCGGNNIGSKDVHWYQQKPGQAPVLVIYRDSNRPSGIPERFSGSNSGNTATLTISRAQAGDEADYYCQVWDSRTAVFGGGTQLTAL
24 nM	mAb 258 (antibody, V domains shown, VH and VL only) VH: EVQLLESGGGLVQPGGSLRLSCAASGFTFSNYAMNWVRQAPGKGLEWVSVISNSGGTRLYVDSVKGRFTISRDNSKNTLYLQMSSLRAADTAVYYCAKDAAAALYYYYFYYMDVWGKGTTVTVSS VL: EIVLTQSPDFQSVTPKEKVTITCRASQSIGSSLHWYQQKPDQSPKLLIKYASQSFSGVPSRFSGSGSGTDFTLTINSLEAEDAATYYCHQSSSLPYTFGQGTKLEIK
18 nM	mAb 240 (antibody, V domains shown, VH and VL only) VH: QGKLVESGGGVVQPGRSLRLSCVASGFTFSGYGMHWVRQAPNKGLEWVAIIYYDGKNKYYADSVKGRFTISRDNSKNTLYLQLNSLRAEDTAVYYCVRGPGYNWFDPWGQGTLVTVSS VL: EIVLTQSPDFQSVTPKEKVTITCRASQNIGSSLHWYQQKPDQSPKLLIKHASQSFSGVPSRFSGSGSGTDFTLTINSLEAEDAATYYCHQSSSLPYTFGQGTKLEIK
18 nM	mAb 230 (antibody, V domains shown, VH and VL only) VH: EVQLLESGGGLVQPGGSLRLSCAASGFTFSSYAMSWVRQAPGKGLEWVSSISGSGGSRYYADSVKGRFTISRDNSKNTLYLQMNSLRAEDTAVYYCAKDPVQDRYYFYYYYMDVWGKGTTVTVSS VL: EIVLTQSPDFQSVTPKEKVTITCRASQSIGSSLHWYQQKPDQSPKLLIKYASQSISGVPSRFSGSGSGTDFTLTINSLEAEDAAAYYCHQSSSLPHTFGQGTKLEIK
3.49 nM	mAb 176 (antibody, V domains shown, VH and VL only) VH: EVELVESGGGLVQPGRSLRLSCAASGFKFDDYTMHWVRLPPGKGLEWVSGISWNSGTIDYGDSVKGRFTISRDNAKNSLYLQMNSLRVEDTALYYCAKDTSGYGHYFYYYMDVWGKGTTVTVSS VL: DIQMTQSPSSLSASIGDRVSITCRTSQIINNYLNWYQQKPGKAPKVLIYSASSLQSGVPSRFSGSGSGTDFTLTINSLQPEDFATYYCQQSYNFPITFGQGTRLELK
41.1 nM	mAb 177 (antibody, V domains shown, VH and VL only; The printed VL holds a letter 'U') VH: EVQLVESGGGLVQPGMSLRLSCAASGFTFDDYTMHWVRQSPGKGLEWVAGISWNSGTIGYGDSMKGRFTISRDNAKNSLDLQMNSLRVEDTALYYCAKDTSGYGHYYYYFMDVWGKGTTVTVSS VL: DIQMTQSPSSLSASIGDRVSITCRTSQIINNYLNWYQQKPGKAPKLLIYSASSLQSGVPSRFSGSGSGTDFTLTLSSLQPEDFATYFCQQSYNFPITFGQGTRLELK

The next lines start with the binder.

Binder	Kd
mAb 128 (antibody, V domains shown, VH and VL only) VH: EVQLVESGGGLVQPGRSLRLSCAASGFTFDDYTMHWVRQAPGKGLEWVSGISWNSGSIGYADSVKGRFTISRDNAKNSLYLQMNSLRAEDTALYYCAKDSSGYGYYYYYSMDVWGKGTTVTVSS VL: EIVMTQSPATLSVSPGERATLSCRASQSVSSNLAWYQQKPGQAPRLLIYGASTRATGIPARFSGSGSGTEFTLTISSLQSEDFAVYYCQLYYNWPHFGQGTRLAIK	186 nM
mAb 167 (antibody, V domains shown, VH and VL only) VH: EVHLVESGGGLVQPGRSLRLSCAASGFTFDDYAMHWVRQAPGKGLEWVSGISWNSGTIGYADSVKGRFTISRDNAKNSLYLEMNSLRAEDTALYYCAKDSSGYGHYYHYYIDVWGTGTTVTVSS VL: EIVMTQSPATLSVSPGGRATLSCRASQSVGSNLAWYQQKPGQAPRLLIYDASTRATGIPARFRGSGSGTEFTLTISGLQSEDFAVYYCQLYYNWPHFGQGTRLEIK	6.26 nM
mAb 172 (antibody, V domains shown, VH and VL only) VH: EVQLVESGGGLVQPGRSLRLSCTTSGFTFDDYTMHWVRQVPGKGLEWVSDISWNSGSVGYADSVKGRFTISRDNAKNSLYLQMNSLRAEDTALYYCVKDSSGYGHYFHYYMDVWGKGTTVTVSS VL: DIQMTQSPSSLSASVGDRVTITCRASQSISNYLNWYQVKPGKAPKVLIYAASSLQSGVPSRFSGSGSGTDFTLTISSLQPEDFVSYYCHQSYNAPITFGQGTRLESK	4.83 nM
mAb 162 (antibody, V domains shown, VH and VL only) VH: EVQLVESGGGLVQPGRSLRLSCAASGFTFDNYAMHWVRQAPGKGLEWVSGISWNSGSIGYADSVKGRFTISRDNAKNSLYLELNSLRAEDTALYYCAKDSSGYGYYYNYYMDVWGKGTTVTVSS VL: EIVMTQSPATLSVSPGERATLSCRASQSVRSNLAWYQQKPGQAPRLLIYGASTRATGIPAKFSGSGSGTEFTLTISSLQSEDFAVYYCQYYYNWPHFGQGTRLEIK	19.4 nM
mAb 160 (antibody, V domains shown, VH and VL only) VH: EVQLVESGGGLVQPGRSLRLSCAVSGFTFNDYTMHWVRQVPGKGLEWVSGISWNSGSIGYADSVKGRFTISRDNAKNSLYLQMNSLRAEDTALYFCAKDSSGYGHYYYYYMDVWGRGTTVTVSS VL: EIVMTQSPATLSVSPGERATLSCRASQSVRKNLAWYQQKPGQAPRLLIYGASTRATGIPARFSGSGSGTEFTLTISSLQSEDFAVYYCQLYNNWPHFGQGTRLEIK	15.2 nM
mAb 170 (antibody, V domains shown, VH and VL only) VH: EVQLVESGGGLVRPGRSLRLSCAASGFTFDDYTMHWVRQAPGKGLEWVSGISWNSGSIGYADSVKGRFTISRDNAKNSLYLQMNSLRAEDTALYYCSKDSSGYGYYLNYSLDVWGKGTTVTVSS VL: not shown	71.9 nM
mAb 126 (antibody, V domains shown, VH and VL only) VH: EVQLVESGGGLVQPGRSLRLSCAASGFTFNDYTMHWVRQVPGKGLEWVSGISWNSGSIDYADSVKGRFTISRDNAKNSLYLQMNSLRAEDTALYYCAKDSSGYGYYYYYYMDVWGKGTTVTVSS VL: EIVMTQSPATLSVSPGERATLSCRASQSVSINLAWYQQKPGQAPRLLIYGASTRATGIPARFSGSGSGTEFTLTISSLQSEDFAVYYCQLYHNWPHFGQGTRLEIK	9.72 nM
mAb 118 (antibody, V domains shown, VH and VL only) VH: EVQLVESGGGLVQPGRSLRLSCAASGFTFDDYTMHWVRQAPGKGLEWVSGISWNSGSIGYADSVKGRFTISRDNAKNSLYLQMNSLRAEDTALYYCSKDSSGYGYYLNYSLDVWGKGTTVTVSS VL: not shown	101 nM
mAb 228 (antibody, V domains shown, VH and VL only) VH: EVQLLESGGGLVQPGGSLRLSCAASGFTFSNYAMNWVRQAPGKGLEWVSTISGSGGGKYYADSVKGRFTISRDNSKNTLYLHMNSLRAEDTAVYYCAKDPVQDRYYFYYYYMDVWGKGTTVTVSS VL: EIVLTQSPDFQSVTPKEKVTITCRASQSIGSSLHWYQQKPDQSPKLLIKYASQSISGVPSRFSGSGSGTDFTLTINSLEAEDAAAYYCHQSSSLPHTFGQGTKLEIK	25 nM
